Test results as given in PMC7012691.

Substrate: O=[N+]([O-])c1ccc(O[C@H]2O[C@H](CO)[C@@H](O)[C@H](O)[C@@H]2O)cc1
Experiment: purified protein
Assay type: biochemical, Enterococcus faecalis
Conditions: apparent, MES 100 mM, pH 6.0, CaCl2 4 mM, 37 °C, 10 min

B1: EfMan-I (Enterococcus faecalis V583) (protein)
chain: MNIQAIDTRHGTANQHSFSNGNCLPYTGVPFGMNFYAPQTTDQKGSWWFHPEDRTFQGYRVTHQPSPWMGDFSHLLMTPVSGSLSELSLFHAQSSYRPEESLFSPVEINLTQLRYQITSQLIPSMYGGILTIDYQQKDNHLLLTLPGRYQVKQLDDHQVAVKVINYSGCEDPDFSFYFVLHFEQPLTKWFAPSSGEDGKILLSFGNIAQQVVHFSSSFISEKQAQLNLAREISLRSTEMLQQGIADWHNYFDRLKVTHENPEHTKTFYHTLYRTFLFPQTFYELDENQQPIHYDTFSQTVRPGVLYTNNGFWDTYKTVYPLFSLIAQEKYEEMLEGFLNSYNETGFLPKWLSPDERGLMPGTLIDAVIADAAVKKIRPDLMPQFLEAMKKGATQQSERENYGRQGTLDYLKYGYVPSTYHESVNHTLDYAYSDFCISQVAKTLNDSETATFYRQQALNYQQLFNPETGFMQAKDTEGNFRPDFLDIRWGKDYAEGSAWQSSFAVYQDFAGLIKLYGSELAFEKKLIQLCNQAPNFNVEGYGFEIHEMSEMAAIDFGQLAISNQPSFHYPFLFSYIGKPEMAQPLLKQLMQTFDASPTGYPGDEDNGSMSAWYIFNSLGFYPVTPGTGEYVIGMPLVQTAEVKLSNGKQLTIQTSPNKVQQQFIHEIQLNQEKHTAPYFTHQELLNGGTLDYQLGIVPNPQNTAERPFSLSTEK
Km: 11 ± 1.7 mM
kcat: 0.49 ± 0.03 s⁻¹
kcat/Km: 47 M⁻¹ s⁻¹
